In paper PMC12416549 (2024):
Changes are numbered by the printed parent chain. In names and notes the source's numbering stands.

B1: R61H (designed binder)
chain: MTLQELLREEALRRAEAEAFRYALELLAEKFPEQKEYLLDLAEEIESQIRSLSGVDVEDVHKFLDKEWAWVKELLAEHPAELAEVEAARAARLAELRAEVEAKVAA
B2: P32R (designed binder)
chain: B1 chain with P32R, H61R
B3: E10Y (designed binder)
chain: B1 chain with E10Y, H61R
B4: E29Y (designed binder)
chain: B1 chain with E29Y, H61R
B5: E46M (designed binder)
chain: B1 chain with E46M, H61R
B6: K62L (designed binder)
chain: B1 chain with H61R, K62L
B7: K62R (designed binder)
chain: B1 chain with H61R, K62R
B8: L7S (designed binder)
chain: B1 chain with L7S, H61R
B9: L12E (designed binder)
chain: B1 chain with L12E, H61R
B10: P79N (designed binder)
chain: B1 chain with H61R, P79N
B11: A17C (designed binder)
chain: B1 chain with A17C, H61R
B12: K35I (designed binder)
chain: B1 chain with K35I, H61R
B13: K72C (designed binder)
chain: B1 chain with H61R, K72C
B14: E25H (designed binder)
chain: B1 chain with E25H, H61R
B15: A17F (designed binder)
chain: B1 chain with A17F, H61R
B16: E33N (designed binder)
chain: B1 chain with E33N, H61R
B17: L27E (designed binder)
chain: B1 chain with L27E, H61R
B18: R50K (designed binder)
chain: B1 chain with R50K, H61R
B19: A19Q (designed binder)
chain: B1 chain with A19Q, H61R
B20: R8Y (designed binder)
chain: B1 chain with R8Y, H61R
B21: K62C (designed binder)
chain: B1 chain with H61R, K62C
B22: E99H (designed binder)
chain: B1 chain with H61R, E99H
B23: L38T (designed binder)
chain: B1 chain with L38T, H61R
B24: L93Y (designed binder)
chain: B1 chain with H61R, L93Y
B25: K62A (designed binder)
chain: B1 chain with H61R, K62A
B26: F63W (designed binder)
chain: B1 chain with H61R, F63W
B27: K35R (designed binder)
chain: B1 chain with K35R, H61R
B28: Y22E (designed binder)
chain: B1 chain with Y22E, H61R
B29: E46T (designed binder)
chain: B1 chain with E46T, H61R
B30: K103E (designed binder)
chain: B1 chain with H61R, K103E
B31: E81I (designed binder)
chain: B1 chain with H61R, E81I
B32: G54Q (designed binder)
chain: B1 chain with G54Q, H61R
B33: V85K (designed binder)
chain: B1 chain with H61R, V85K
B34: L6C (designed binder)
chain: B1 chain with L6C, H61R
B35: L75G (designed binder)
chain: B1 chain with H61R, L75G
B36: R14C (designed binder)
chain: B1 chain with R14C, H61R
B37: R97K (designed binder)
chain: B1 chain with H61R, R97K
B38: R50S (designed binder)
chain: B1 chain with R50S, H61R
B39: R14Q (designed binder)
chain: B1 chain with R14Q, H61R
B40: A91K (designed binder)
chain: B1 chain with H61R, A91K
B41: A28V (designed binder)
chain: B1 chain with A28V, H61R
B42: Y37S (designed binder)
chain: B1 chain with Y37S, H61R
B43: R97I (designed binder)
chain: B1 chain with H61R, R97I
B44: L26G (designed binder)
chain: B1 chain with L26G, H61R
B45: A94M (designed binder)
chain: B1 chain with H61R, A94M
B46: L41Y (designed binder)
chain: B1 chain with L41Y, H61R
B47: E101W (designed binder)
chain: B1 chain with H61R, E101W
B48: L7M (designed binder)
chain: B1 chain with L7M, H61R
B49: I49T (designed binder)
chain: B1 chain with I49T, H61R
B50: E44F (designed binder)
chain: B1 chain with E44F, H61R
B51: E86P (designed binder)
chain: B1 chain with H61R, E86P
B52: R14V (designed binder)
chain: B1 chain with R14V, H61R
B53: M1D (designed binder)
chain: B1 chain with M1D, H61R
B54: L26S (designed binder)
chain: B1 chain with L26S, H61R
B55: D56P (designed binder)
chain: B1 chain with D56P, H61R
B56: E101M (designed binder)
chain: B1 chain with H61R, E101M
B57: E16H (designed binder)
chain: B1 chain with E16H, H61R
B58: A102Y (designed binder)
chain: B1 chain with H61R, A102Y
B59: A76H (designed binder)
chain: B1 chain with H61R, A76H

Biological target: T1, TNFR1 (Homo sapiens, UniProt P19438)
T1 chain: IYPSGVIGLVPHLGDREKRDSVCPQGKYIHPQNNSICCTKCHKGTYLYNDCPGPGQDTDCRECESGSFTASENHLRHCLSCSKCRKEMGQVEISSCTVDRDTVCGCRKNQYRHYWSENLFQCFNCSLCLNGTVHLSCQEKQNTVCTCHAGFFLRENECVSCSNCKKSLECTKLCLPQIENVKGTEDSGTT
Assay: yeast display SC50

| Binder | apparent Kd (screen) |
| --- | --- |
| B1 | 1.4 nM |
| B2 | 0.539 nM |
| B3 | 0.653 nM |
| B4 | 0.539 nM |
| B5 | 0.49 nM |
| B6 | 0.653 nM |
| B7 | 0.539 nM |
| B8 | 13.8 nM |
| B9 | 1.27 nM |
| B10 | 0.539 nM |
| B11 | 0.446 nM |
| B12 | 2.48 nM |
| B13 | 0.718 nM |
| B14 | 0.718 nM |
| B15 | 0.49 nM |
| B16 | 0.539 nM |
| B17 | 0.869 nM |
| B18 | 0.539 nM |
| B19 | 0.446 nM |
| B20 | 1.05 nM |

| Binder | apparent Kd (screen) |
| --- | --- |
| B21 | 0.49 nM |
| B22 | 0.49 nM |
| B23 | 26.9 nM |
| B24 | 0.539 nM |
| B25 | 0.593 nM |
| B26 | 0.869 nM |
| B27 | 0.49 nM |
| B28 | 0.304 nM |
| B29 | 0.653 nM |
| B30 | 0.79 nM |
| B31 | 0.49 nM |
| B32 | 1.05 nM |
| B33 | 0.653 nM |
| B34 | 2.05 nM |
| B35 | 1.4 nM |
| B36 | 0.539 nM |
| B37 | 0.539 nM |
| B38 | 0.653 nM |
| B39 | 0.593 nM |
| B40 | 0.49 nM |

| Binder | apparent Kd (screen) |
| --- | --- |
| B41 | 2.05 nM |
| B42 | 12.5 nM |
| B43 | 0.539 nM |
| B44 | 0.446 nM |
| B45 | 0.718 nM |
| B46 | 0.718 nM |
| B47 | 0.49 nM |
| B48 | 2.48 nM |
| B49 | 0.539 nM |
| B50 | 16.7 nM |
| B51 | 4.83 nM |
| B52 | 0.956 nM |
| B53 | 0.446 nM |
| B54 | 0.49 nM |
| B55 | 6.43 nM |
| B56 | 0.653 nM |
| B57 | 0.718 nM |
| B58 | 0.653 nM |
| B59 | 0.79 nM |
